Source: patent US20240247072A1 (KEYMED BIOSCIENCES, published 2024)
Where a chain is given by its changes, count along the chain named.

B1: 26G11 Fab antibody (Fab, V domains shown)
VH: QVQLQQSGPELVKPGASVKISCKTSGYTFADYTMHWVRQSQGKSLEWIGDIYPNDGGPNNNQKFKDKATLTVDKSSSTAYMELRSLTSEDSAVYYCARPFYYGNYAGFAFWGQGTLVTVSA
VL: EMVLTQSPAIMSASPGEKVTMTCSASSSVSYMYWYQQKPGSSPRLLIYDTSNLASGVPVRFSGSGSGTSYSLTISRMEAEDAATYYCQQWSSYPLTFGAGTRLEIK
notes: Purified Fab from the mouse Fab phage display library
B2: humanized antibody Ab004 (IgG1 wild type) (antibody, V domains shown)
VH: QVQLVQSGSELKKPGASVKVSCKASGYTFTNYGMNWVRQAPGQGLEWMGWINTYTGEPTYADGFTGRFVFSLDTSASTAYLQISSLKAEDTAVYFCAREEDYRYVFNYWGQGTLVTVSS
VL: DIQMTQSPSSLSASVGDRVTITCQASQDISNYLNWYQQKPGKAPKLLIYDTSRLHAGVPSRFSGSGSGTDYTFTISSLQPEDIATYFCQQGVTLPLTFGQGTKLEIK
notes: also called Ab004 IgG1 wt; h39H5 VHv2 + h39H5 VKv1
B3: 25H7 Fab antibody (Fab, V domains shown)
VH: EIQLVQSGPELKKPGETVKISCKASGYTFTNYGMNWVKQTPGKGLKWMGWINTDTGEPTYADDFKGRFAFSLETSASTAYLQINNLKNEDMATYFCAREEDYRYVFNYWGQGTTLTVSS
VL: DIQMTQTTSSLSASLGDRVTISCRASQDISNYLNWYQQKPDGTVKLLIYYTSRLHSGVPSRFSGSGSGTDYSLTISNLEQEDIATYFCQQGVTLPLTFGAGTKLELK
notes: as for B1
B4: 39H5 Fab antibody (Fab, V domains shown)
VH: B3 VH with T40A, K43Q, D54Y, K65T, T93A
VL: B3 VL with T5I, T7S, D17N, Y50D, S56A, L106I
notes: as for B1

Assays:
[1] = biological target: T1, cynomolgus monkey CD70, full length, on CHO cells (CHO-monkey CD70-D01) (cynomolgus monkey, UniProt A0A2K5WTU9 1-190); experiment: flow cytometry, Fab on CHO-cynomolgus CD70 cells
T1 construct: whole, on cells; Stably transfected CHO cells; also called CHO-cynomolgus monkey CD70
T1 sequence: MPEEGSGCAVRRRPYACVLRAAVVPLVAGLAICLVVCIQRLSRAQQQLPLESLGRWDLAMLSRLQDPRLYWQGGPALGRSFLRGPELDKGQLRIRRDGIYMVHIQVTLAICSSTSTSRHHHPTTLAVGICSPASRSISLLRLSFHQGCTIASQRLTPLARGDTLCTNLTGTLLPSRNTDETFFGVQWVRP
Method: (§1) The blank control cell CHO and stably-transfected cell line CHO-CD70 were prepared and added at 5×10⁴ cells/well into a 96-well plate respectively. 50 μL of Fab antibodies with different dilution gradients were added into each well and incubated at 4° C. for 60 minutes. The centrifuge was performed to discard the supernatant. The plate was washed with 0.5% BSA/PBS and added with 50 μL of a secondary antibody solution (Anti-human IgG F (ab′) 2-AF647, Jackson Immuno Research) and incubated at 4° C. for 45 minutes. The excess secondary antibody was washed off with 0.5% BSA. The PBS solution was added to resuspend cells for flow cytometry. The data was collected.

[2] = biological target: T2, human CD70, full length, on CHO cells (CHO-human CD70-B07) (human, UniProt P32970 1-193); experiment: flow cytometry, Fab on CHO-human CD70 cells
T2 construct: whole, on cells; Stably transfected CHO cells; also called CHO-CD70
T2 sequence (looked up): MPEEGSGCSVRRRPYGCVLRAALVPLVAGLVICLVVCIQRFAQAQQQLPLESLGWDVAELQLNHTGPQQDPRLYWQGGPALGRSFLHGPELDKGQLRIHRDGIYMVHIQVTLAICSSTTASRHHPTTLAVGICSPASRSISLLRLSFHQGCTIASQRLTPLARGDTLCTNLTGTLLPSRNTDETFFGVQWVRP
Method: as §1

[3] = biological target: T3, recombinant cynomolgus monkey CD70 protein (cynomolgus monkey, UniProt A0A2K5WTU9 39-190); experiment: competition ELISA, Fab titrated, cynomolgus CD27 coated, biotin-CD70
T3 construct: it stands only in column heads ('Monkey', 'Cynomolgus Monkey CD70/CD27') and in result sentences; also called Monkey (ELISA)
T3 sequence: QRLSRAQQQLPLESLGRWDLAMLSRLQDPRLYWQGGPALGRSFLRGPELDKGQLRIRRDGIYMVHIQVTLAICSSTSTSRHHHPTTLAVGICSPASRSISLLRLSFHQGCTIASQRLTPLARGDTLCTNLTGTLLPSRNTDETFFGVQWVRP
Method: (§2) The next day, the plate was washed 3 times with PBS, added with 200 μL of 2% defatted dry milk/PBS, blocked at room temperature for 2 hours, and washed once with PBS, 50 μL of different dilution gradients of Fab antibodies were added and incubated at room temperature for 30 minutes. […] The plate was washed 3 times with PBST and PBS and dried by spinning. A secondary antibody solution Streptavidin-coupled horseradish peroxidase SA-HRP (BD bioscience, Cat. No: 6222697) was diluted with 0.5% BSA in a ratio of 1:8000. 100 μl of the diluent was added into each well and incubate at room temperature for 30 minutes. The plate was washed 3 times with PBST and PBS and dried by spinning. 100 μl of the color development solution (TMB solution, Sigma, Cat. No: T2885) was added into each well and protected from light at 37° C. for reaction. After the substrate developed moderately, 50 μl of 2M concentrated sulfuric acid solution was added into each well to terminate the reaction. The OD450 nm was determined by using an enzyme-linked detector within 30 minutes, and the data was collected.

[4] = biological target: T4, recombinant trimeric protein of human CD70 extracellular region (human CD70 mIgG Fc (knob) / mouse IgG Fc … (human, UniProt P01863 98-330 = IgG part)); experiment: BLI (Octet), biotin antigen on SA probe, Fab in solution
T4 construct: The ELISA and Octet texts say only 'recombinant CD70 protein' / 'CM352 antigen'; also called recombinant human CD70 protein; recombinant CD70 protein
T4 chain 1: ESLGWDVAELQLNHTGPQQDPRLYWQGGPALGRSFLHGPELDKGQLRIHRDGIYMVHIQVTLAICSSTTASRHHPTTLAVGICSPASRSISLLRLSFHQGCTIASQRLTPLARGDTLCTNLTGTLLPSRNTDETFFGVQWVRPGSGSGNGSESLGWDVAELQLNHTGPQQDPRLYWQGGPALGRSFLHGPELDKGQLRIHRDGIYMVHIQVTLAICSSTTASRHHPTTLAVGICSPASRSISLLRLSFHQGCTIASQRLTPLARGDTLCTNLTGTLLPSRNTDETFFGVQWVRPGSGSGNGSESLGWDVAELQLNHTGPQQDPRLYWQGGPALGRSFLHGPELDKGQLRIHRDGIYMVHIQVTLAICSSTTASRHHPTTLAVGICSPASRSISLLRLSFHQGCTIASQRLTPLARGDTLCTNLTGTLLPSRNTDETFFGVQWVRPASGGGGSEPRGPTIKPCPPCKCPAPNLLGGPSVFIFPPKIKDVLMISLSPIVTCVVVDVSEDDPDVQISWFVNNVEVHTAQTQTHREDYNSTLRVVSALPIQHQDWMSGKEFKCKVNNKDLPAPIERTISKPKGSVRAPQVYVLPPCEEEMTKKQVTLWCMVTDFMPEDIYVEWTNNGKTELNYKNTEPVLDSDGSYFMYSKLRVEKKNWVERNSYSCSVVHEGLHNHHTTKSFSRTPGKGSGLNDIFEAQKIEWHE
T4 chain 2: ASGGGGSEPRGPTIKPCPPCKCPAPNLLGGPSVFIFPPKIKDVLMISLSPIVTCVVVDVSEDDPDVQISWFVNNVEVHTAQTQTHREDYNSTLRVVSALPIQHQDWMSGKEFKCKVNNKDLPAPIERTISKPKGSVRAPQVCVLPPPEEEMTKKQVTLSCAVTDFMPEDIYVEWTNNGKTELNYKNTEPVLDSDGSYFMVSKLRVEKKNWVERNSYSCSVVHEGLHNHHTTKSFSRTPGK

[5] = biological target: T4, recombinant trimeric protein of human …; experiment: competition ELISA, Fab titrated, human CD27 coated, biotin-CD70
Method: as §2

[6] = biological target: T1, cynomolgus monkey CD70, full length, on …; experiment: flow cytometry, humanized IgG1 on CHO-cynomolgus monkey CD70 cells
Method: (§3) The supernatant was discarded and the cells were gently tapped to be loosening. 50 μL of gradient diluted antibodies were added (antibody concentration: from 30 μg/mL, 3-fold dilution for 8 gradients) per well, and incubated at 4° C. for 1 hour. After incubation, 200 μL of 0.5% BSA was added to each well for washing 3 times. 50 μL/well of secondary antibody Alexa Fluro647 anti-human IgG (Jackson ImmunoResearch, Cat. No: 109-606-170) was added and incubated at 4° C. for 45 minutes. At the end of the incubation, each well was washed 3 times with 180 μL of 0.5% BSA and finally resuspended in 50 μL of PBS for iQue (Intellicyt) assay.

[7] = biological target: T2, human CD70, full length, on CHO cells …; experiment: flow cytometry, humanized IgG1 on CHO-human CD70 cells
Method: as §3

[8] = biological target: FcγRIIIF158 on PBMC of FcγRIIIF158/F158 volunteers (human) (UniProt P08637); experiment: cell-based or functional assay
[9] = biological target: FcγRIIIV158 on PBMC of FcγRIIIV158/V158 volunteers (human) (UniProt P08637); experiment: cell-based or functional assay
[10] = biological target: T4, recombinant trimeric protein of human …; experiment: cell-based or functional assay
[11] = biological target: T4, recombinant trimeric protein of human …; experiment: competition ELISA, humanized IgG1 titrated, CD27 coated, biotin-CD70, human pair
Method: The recombinant human CD27 protein was coated at 1 μg/mL in a 96-well microtiter plate and incubated overnight at 4° C. The next day, the plate was washed 3 times with PBS, added with 200 μL of 2% defatted dry milk/PBS, blocked at room temperature for 2 hours, and washed once with PBS. […] 30 μl of the antibody was added per well and incubated at room temperature for 30 minutes. […] The plate was washed 3 times with PBST and PBS and dried by spinning. A secondary antibody solution Streptavidin-coupled horseradish peroxidase SA-HRP (BD bioscience, Cat. No: 6222697) was diluted with 0.5% BSA in a ratio of 1:8000. 100 μL of the diluent was added into each well and incubated at room temperature for 30 minutes. The plate was washed 3 times with PBST and PBS and dried by spinning. […] of color development solution (TMB solution, Sigma, Cat. No: T2885) was added into each well and protected from light at 37° C. for reaction. After the substrate developed moderately, […] of H₂SO₄ was added into each well to terminate the reaction. The OD450 nm was determined using an enzyme-linked detector within 30 minutes, and the data was collected. The results were calculated by using Graph Pad Prism 5 software. See FIG. 10-1, 10-2, and Table 12 for the results.

[12] = biological target: T3, recombinant cynomolgus monkey CD70 …; experiment: competition ELISA, humanized IgG1 titrated, CD27 coated, biotin-CD70, cynomolgus pair
[13] = biological target: FcγRIII F158 (CD16a receptor, low-affinity allele) (human) (UniProt P08637); experiment: SPR (Biacore)
[14] = biological target: FcγRIII V158 (CD16a receptor, high-affinity allele) (human) (UniProt P08637); experiment: SPR (Biacore)
FcγRIII V158 (CD16a receptor, high-affinity allele) (human), sequence (P08637 17-208 F176V limits assumed): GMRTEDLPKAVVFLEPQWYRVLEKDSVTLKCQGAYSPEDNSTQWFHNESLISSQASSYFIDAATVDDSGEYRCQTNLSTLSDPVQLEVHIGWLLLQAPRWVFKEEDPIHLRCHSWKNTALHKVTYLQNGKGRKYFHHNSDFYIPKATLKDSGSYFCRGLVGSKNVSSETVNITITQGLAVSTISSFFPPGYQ

FcγRIIIF158 on PBMC of FcγRIIIF158/F158 volunteers (human), sequence (P08637 17-254): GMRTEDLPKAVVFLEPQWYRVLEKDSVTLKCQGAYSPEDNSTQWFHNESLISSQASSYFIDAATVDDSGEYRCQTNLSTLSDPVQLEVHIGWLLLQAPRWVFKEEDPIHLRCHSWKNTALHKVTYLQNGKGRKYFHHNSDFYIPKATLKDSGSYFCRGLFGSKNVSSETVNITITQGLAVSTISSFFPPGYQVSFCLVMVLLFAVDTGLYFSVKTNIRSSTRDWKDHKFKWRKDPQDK
FcγRIIIV158 on PBMC of FcγRIIIV158/V158 volunteers (human), sequence (P08637 17-254 F176V): as the sequence (P08637 17-254) above, with F160V counted along it
FcγRIII F158 (CD16a receptor, low-affinity allele) (human), sequence (P08637 17-208 limits assumed): as the sequence (P08637 17-208 F176V limits assumed) above, with V160F counted along it

Binder | EC50 [1] [nM] | EC50 [2] [nM] | IC50 [3] [nM] | koff [4] [s⁻¹] | IC50 [5] [nM] | EC50 [6] [nM] | EC50 [7] [nM] | ADCC Killing EC50, Daudi targets, FcγRIIIF158 PBMC [8] [nM] | ADCC Maximum killing rate, Daudi targets, FcγRIIIF158 PBMC [8] [%] | ADCC Killing EC50, Daudi targets, FcγRIIIV158 PBMC [9] [nM] | ADCC Maximum killing rate, Daudi targets, FcγRIIIV158 PBMC [9] [%] | Inhibition of IL-8 secretion IC50(nM), HT1080-human CD27 cells stimulated with recombinant human CD70 [10] [nM] | IC50 [11] [nM] | IC50 [12] [nM] | Kd [13] [nM] | Kd [14] [nM]
B1 | 49.7 | 40.7 | 4.36 | 0.000287 | 4.82 |  |  |  |  |  |  |  |  |  |  | 
B2 |  |  |  |  |  | 3.39 | 2.15 | 0.23 | 13 | 0.22 | 40 | 11 | 0.04 | 0.05 | 1300 | 565
B3 | 23.4 | 15.5 | 14.4 | 0.000326 | 0.76 |  |  |  |  |  |  |  |  |  |  | 
B4 | 10.2 | 8.7 | 0.37 | 9e-05 | 0.38 |  |  |  |  |  |  |  |  |  |  | 
